Biological target: CmHRE2-like (CmHRE2L) (UniProt A0AA96PUJ9 1-225)
Assay: EMSA; LightShift Chemiluminescent EMSA Kit (Thermo Fisher); buffer, salt, pH and temperature not stated
Conditions: protein: recombinant; tags: GST (pGEX4T-1, N-terminal); label: biotin

Sequence of CmHRE2-like (CmHRE2L) (A0AA96PUJ9 entry or part of it): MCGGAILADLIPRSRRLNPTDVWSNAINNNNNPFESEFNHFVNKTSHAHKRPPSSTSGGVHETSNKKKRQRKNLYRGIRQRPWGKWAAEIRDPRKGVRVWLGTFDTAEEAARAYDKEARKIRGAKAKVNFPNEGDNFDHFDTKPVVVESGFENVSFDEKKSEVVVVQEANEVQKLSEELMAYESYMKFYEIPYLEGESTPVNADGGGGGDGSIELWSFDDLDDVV

B1: Biotin-mP, probe with mutated cis-element 3 (dsDNA)
DNA 1: ACCTTCATATGCATGAAAAAAAAATTTTCCACTCAACA
DNA 2: TGTTGAGTGGAAAATTTTTTTTTCATGCATATGAAGGT
binding result: no binding
